Tests used:
Format in all cases: biochemical
[1] = HTP-analysis of supernatants pretreated with base (MUGal hydrolysis); conditions: activity of the variant/activity of Rd3BB (SEQ ID NO: 13); challenge at pH 9.7
Outline: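 GLA variants secreted from yeast INVSc1; culture supernatants pre-incubated with McIlvaine buffer pH 7.0–8.2 or 200 mM bicarbonate pH 9.1–9.7 at 37° C. for 1–18 h. Residual activity: MUGal (4 mM stock) hydrolysis at pH 4.3–4.8, 37° C., 30–180 min, carbonate quench; fluorescence Ex 355/Em 448 nm.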

[2] = HTP-analysis of supernatants pretreated with acid (MUGal hydrolysis); conditions: activity of the variant/activity of Rd3BB (SEQ ID NO: 13); challenge at pH 3.7
Outline: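 Fluorescence of MUGal hydrolysis (Ex. 355 nm, Em. 448 nm) is read after sodium carbonate quench. The enzyme source is INVSc1 yeast culture supernatant, first exposed to pH 3.3-4.3 McIlvaine buffer at 37° C. for 1-3 h, then reacted at pH 4.8 for 30-180 minutes.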

[3] = HTP-analysis of yeast culture supernatants, no challenge (MUGal hydrolysis); conditions: activity of the variant/activity of Rd3BB (SEQ ID NO: 13)
Outline: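 Activity read as 4-methylumbelliferyl α-D-galactopyranoside hydrolysis: fluorescence (355/448 nm) after sodium carbonate stop, following 30-180 min at 37° C with 2 mM MUGal stock at pH 4.6–4.8. Enzyme source is unchallenged culture supernatant of INVSc1 yeast expressing GLA variants, grown 66-84 h at 30° C.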

Molecule | Relative Activity of GLA Variants After Challenge at pH 9.7 [1] | Relative Activity of GLA Variants After Challenge at pH 3.7 [2] | Relative Activity of GLA Variants After No Challenge (NC) [3]
585 (protein, Synthetic Polypeptide sequence of Variant No. 585 of mature Human GLA) LDNGLARTPTMGWLHWERFMCNLDCQEEPDSCISEKLFMEMAERMVSEGWKDAGYEYLCIDDCWMAPQRDSEGRLQADPQRFPHGIRQLANHVHSKGLKLGIYADVGNKTCAGFPGSFGYYDIDAQTFADWGVDLLKFDGCYCDSLENLADGYKHMSLALNRTGRSIVYSCEWPLYMWPFQKPNYTEIRQYCNHWRNFADIDDSWASIKKILDWTSRNQERIVDVAGPGGWNDPDMLVIGNFGLSWDQQVTQMALWAIMAAPLFMSNDLRHISPQAKALLQDKDVIAINQDPLGKQGYQLRKGDNFEVWERPLSGDAWAVAIINRQEIGGPRSYTIPVASLGKGVACNPACFITQLLPVKRQLGFYNWTSRLKSHINPTGTVLLQLENTMQMSLKDLL | ++ (++ = >5 to 10 relative activity over Rd3BB (SEQ ID NO: 13)) | + (+ = 1.5 to 5 relative activity over Rd3BB (SEQ ID NO: 13)) | + (+ = 1.5 to 5 relative activity over Rd3BB (SEQ ID NO: 13))
587 (protein, Synthetic Polypeptide sequence of Variant No. 587 of mature Human GLA) LDNGLARTPTMGWLHWERFMCNLDCQEEPDSCISEKLFMEMAERMVSEGWKDAGYEYLCIDDCWMAPQRDSEGRLQADPQRFPHGIRQLANHVHSKGLKLGIYADVGNKTCAGFPGSFGYYDIDAQTFADWGVDLLKFDGCYCDSLENLADGYKHMSLALNRTGRSIVYSCEWPLYMWPFQKPNYTEIRQYCNHWRNFADIDDSWASIKRILDWTSRNQERIVDVAGPGGWNDPDMLVIGNFGLSWDQQVTQMALWAIMAAPLFMSNDLRHISPQAKALLQDKDVIAINQDPLGKQGYQLRKGDNFEVWERPLSGDAWAVAIINRQEIGGPRSYTIPVASLGKGVACNPACFITQLLPVKRQLGFYNWTSRLKSHINPTGTVLLQLENTMQMSLKDLL | ++ (++ = >5 to 10 relative activity over Rd3BB (SEQ ID NO: 13)) | + (+ = 1.5 to 5 relative activity over Rd3BB (SEQ ID NO: 13)) | + (+ = 1.5 to 5 relative activity over Rd3BB (SEQ ID NO: 13))
586 (protein, Synthetic Polypeptide sequence of Variant No. 586 of mature Human GLA) LDNGLARTPTMGWLHWERFMCNLDCQEEPDSCISEKLFMEMAERMVSEGWKDAGYEYLCIDDCWMAPQRDSEGRLQADPQRFPHGIRQLANHVHSKGLKLGIYADVGNKTCAGFPGSFGYYDIDAQTFADWGVDLLKFDGCYCDSLENLADGYKHMSLALNRTGRSIVYSCEWPLYMWPFQKPNYTEIRQYCNHWRNFADIDDSWASIKNILDWTSRNQERIVDVAGPGGWNDPDMLVIGNFGLSWDQQVTQMALWAIMAAPLFMSNDLRHISPQAKALLQDKDVIAINQDPLGKQGYQLRKGDNFEVWERPLSGDAWAVAIINRQEIGGPRSYTIPVASLGKGVACNPACFITQLLPVKRQLGFYNWTSRLKSHINPTGTVLLQLENTMQMSLKDLL | ++ (++ = >5 to 10 relative activity over Rd3BB (SEQ ID NO: 13)) | ++ (++ = >5 to 10 relative activity over Rd3BB (SEQ ID NO: 13)) | + (+ = 1.5 to 5 relative activity over Rd3BB (SEQ ID NO: 13))

From patent publication US11278600B2, “Human alpha-galactosidase variants” (Codexis, Inc., priority 2014, dated 2022)
